The values below come from patent US20140234872A1 (University of California, published 2014).

The target of one test is His-Gαi3. The experiment in a line: cell-based or functional assay.
Test [1] has as its target T1, GST (alone) (UniProt P08515 1-218 = GST).
T1 construct: Negative control on glutathione beads
The experiment in a line: GST pulldown, GIV-CT pAb blot (FIG. 20B). The method, then: Equal aliquots (˜3 μg) of His-GIV-CT were incubated with ˜30 ug of GST and ˜25 μg GST-SHP-1 immobilized on glutathione beads. Bound His-GIV-CT was analyzed by immunoblotting (IB) with GIV-CT pAb. Relative amounts of bead-bound GST and GST-SHP-1 were confirmed by ponceau S staining. (B) His-GIV-CT preferentially binds the C-terminal SH2 domain of SHP-1. Equal aliquots (˜3 μg) of His-GIV-CT were incubated with ˜30 μg GST, wild-type GST-SHP-1, GST-SHP-1 lacking both SH2 domains (ΔN+CSH2), and GST-SHP-1 lacking only the N-terminal SH2 domain (ΔNSH2). Bound His-GIV-CT was analyzed by immunoblotting (IB) with GIV-CT pAb. His-GIV-CT specifically bound wild-type GST-SHP-1, but not GST alone (lanes 3, 4); binding was reduced in the absence of both SH2 domains (lane 5), but restored when the C-terminal SH2 domain was present (lane 6).
To determine if the GIV-SHP-1 interaction observed in vivo is direct, in vitro binding assays were carried out using recombinant His-GIV-CT and GST or GST-SHP-1 immobilized on glutathione beads. […] Because SHP-1 is recruited to its substrates by one or both of its in-tandem SH2 domains (30), whether the SH2 domains, and if so, which one (NSH2 or CSH2) is responsible for mediating the direct interaction of SHP-1 with GIV's C-terminus was assessed. […]

The target in test [2] is T1, GST (alone). The experiment in a line: GST pulldown with a panel of GST-tagged SH2 adaptors (FIG. 4A). The method, then:
FIG. 4 illustrates that GIV interacts with p85α via its phosphorylated C-terminus. […] Mock-treated GIV-CT and in vitro EGFR-phosphorylated pY GIV-CT were incubated with ˜35 μg of the indicated GST-SH2 adaptors or GST immobilized on glutathione beads. Bound His-GIV-CT was analyzed by immunoblotting (IB) with anti-His mAb. pY GIV-CT, but not GIV-CT specifically bound the C-terminal SH2 domain of p85α (lane 3), and weakly to the N-terminal SH2 domain of p85α (lane 2). […] Mock-treated GIV-CT and in vitro EGFR or Src-phosphorylated (pY GIV-CT) His-GIV-CT were incubated with ˜35 μg of GST-p85α-CSH2 adaptor or GST immobilized on glutathione beads. Bound His-GIV CT was analyzed by immunoblotting (IB) with anti-His mAb. GIV CT bound p85α-CSH2 exclusively after phosphorylation by EGFR and Src-kinases (lanes 3, 4), but not when sham-treated (lane 2). […] HeLa cells were starved (0 min), and subsequently stimulated with EGF for indicated time periods prior to lysis. Equal aliquots of lysates (bottom) were incubated with anti-GIV (CT Ab; lanes 1-3) or a mix (M) of them was incubated with pre-immune IgG Immune complexes (top) were analyzed for the presence of endogenous GIV, phosphotyrosine (pTyr) and p85α by immunoblotting (IB). […] Equal aliquots of lysates (bottom) were treated with anti-GIVCT Ab or preimmune IgG Immunoprecipitated complexes (top) were analyzed for GIV and p85α by immunoblotting (IB). […]

Test [3] deals with endogenous SHP-1 of HEK cells (UniProt P29350 1-595). The experiment in a line: anti-SHP-1 co-immunoprecipitation from HEK lysates (FIG. 26). The method, then: Equal aliquots of HEK lysates (bottom) were incubated with either rabbit preimmune (lane 1) or anti-SHP-1 (lane 2) IgGs, and protein A agarose beads. Lysates and immune complexes (top) were analyzed for GIV, SHP-1, and Gαi3 by immunoblotting (IB). SHP-1 was immunoprecipitated efficiently and specifically by anti-SHP-1 (lane 2), but not control (lane 1) IgG. GIV, but not Gαi3 was detected in SHP-1-bound protein complexes (lane 2).
Chain of endogenous SHP-1 of HEK cells (P29350 whole entry): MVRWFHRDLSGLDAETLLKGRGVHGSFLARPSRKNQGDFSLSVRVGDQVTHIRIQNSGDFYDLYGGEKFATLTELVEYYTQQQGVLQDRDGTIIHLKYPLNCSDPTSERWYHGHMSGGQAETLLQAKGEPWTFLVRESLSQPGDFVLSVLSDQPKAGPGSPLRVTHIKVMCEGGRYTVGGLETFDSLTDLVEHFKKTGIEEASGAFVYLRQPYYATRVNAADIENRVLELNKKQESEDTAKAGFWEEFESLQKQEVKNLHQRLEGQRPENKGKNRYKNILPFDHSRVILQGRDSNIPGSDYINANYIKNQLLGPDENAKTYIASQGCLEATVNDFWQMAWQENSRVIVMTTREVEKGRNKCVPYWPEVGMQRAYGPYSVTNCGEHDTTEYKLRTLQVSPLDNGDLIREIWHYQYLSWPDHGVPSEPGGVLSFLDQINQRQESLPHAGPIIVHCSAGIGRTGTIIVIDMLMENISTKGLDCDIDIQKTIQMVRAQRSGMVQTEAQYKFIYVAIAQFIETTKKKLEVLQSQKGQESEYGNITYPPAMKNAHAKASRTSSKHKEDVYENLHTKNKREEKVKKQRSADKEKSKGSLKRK

T1 sequence (P08515 whole entry): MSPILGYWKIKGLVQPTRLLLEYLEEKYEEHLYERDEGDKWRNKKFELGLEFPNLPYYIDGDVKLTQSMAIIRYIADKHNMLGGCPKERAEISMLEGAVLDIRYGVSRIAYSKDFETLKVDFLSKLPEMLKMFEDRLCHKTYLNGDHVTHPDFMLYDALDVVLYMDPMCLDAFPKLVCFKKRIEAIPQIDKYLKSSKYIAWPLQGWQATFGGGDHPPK

B1: His-GIV-CT (aa 1660-1870), wild-type, not phosphorylated (mock- or sham-treated) (other)
chain: SETLESRHHKIKTGSPGSEVVTLQQFLEESNKLTSVQIKSSSQENLLDEVMKSLSVSSDFLGKDKPVSCGLARSVSGKTPGDFYDRRTTKPEFLRPGPRKTEDTYFISSAGKPTPGTQGKIKLVKESSLSRQSKDSNPYATLPRASSVISTAEGTTRRTSIHDFLTKDSRLPISVDSPPAAADSNTTAASNVDKVQESRNSKSRSREQQSS
notes: Expressed in E. coli; also called mock-WT; mock-treated GIV-CT; not shown: hexahistidine (6xHis) tag of pET28b
Consider B1, for which the “steady-state GTPase activity of His-Gαi3” value with His-Gαi3 is ~1.7 fold over the basal activity. Besides, the binding result with GST (alone) [1] is listed as “no binding (tested: ˜3 µg His-GIV-CT, ˜30 µg GST)”.

B2: His-GIV-CT (aa 1660-1870), wild-type, phosphorylated in vitro by recombinant EGFR kinase (other)
chain: B1 chain
modifications: phosphotyrosine at Y1764 and Y1798 (sites found by mass spectrometry after EGFR kinase; EGFR prefers Y1764)
notes: also called pY GIV-CT; pY GIV-CT (EGFR); not shown: hexahistidine (6xHis) tag of pET28b
Take B2: in the test with His-Gαi3, the “steady-state GTPase activity of His-Gαi3” value is ~1.7 fold over the basal activity. The binding result with GST (alone) [2] is “no binding”.

B3: endogenous Gαi3 of HEK cells (other, UniProt P08754 2-354, looked up)
chain: GCTLSAEDKAAVERSKMIDRNLREDGEKAAKEVKLLLLGAGESGKSTIVKQMKIIHEDGYSEDECKQYKVVVYSNTIQSIIAIIRAMGRLKIDFGEAARADDARQLFVLAGSAEEGVMTPELAGVIKRLWRDGGVQACFSRSREYQLNDSASYYLNDLDRISQSNYIPTQQDVLRTRVKTTGIVETHFTFKDLYFKMFDVGGQRSERKKWIHCFEGVTAIIFCVALSDYDLVLAEDEEMNRMHESMKLFDSICNNKWFTETSIILFLNKKDLFEEKIKRSPLTICYPEYTGSNTYEEAAAYIQCQFEDLNRRKDTKEIYTHFTCATDTKNVQFVFDAVTDVIIKNNLKECGLY
B3: the binding result in test [3] is “no binding”.
